Measurements from US20060216716A1, “Immunologic activity measures for t helper on-associated conditions” (priority 2003, published 2006).

How the values were obtained:
CXCL9 = test: activated CXCL9 levels (interferon-gamma and tumor necrosis factor-alpha stimulation) in Crohn's Disease subjects by medication usage; format: in vivo; settings: disease active or in remission, FIG. 7
Procedure: (§1) Following informed consent, a heparinized whole blood sample. […] Finally, and the plate is again washed repeatedly.
In a subsequent experiment, a combination of stimulating cytokines (interferon-gamma and tumor necrosis factor-alpha) was administered to Crohn's Disease patients and the effects of medication studied.

CXCL10 = settings: within individual Crohn's Disease subjects; interferon-gamma activation; FIG. 4
Procedure: A pro-inflammatory stimulant, e.g., interferon-gamma, is added at a concentration of approximately 1000 units/cc and incubated at 37° C. […] At an appropriate time interval, e.g., 3 hours, the samples are centrifuged to allow collection of the plasma, or serum (the non-cell containing portion of the blood). […] In a standard sandwich ELISA detection, the plasma/serum is allowed to incubate with a capture antibody. Then, the sample is removed, the plate is washed multiple times and an antibody labeled with an enzyme is applied (detection antibody). Finally, and the plate is again washed repeatedly. Depending on the enzyme used for the detection antibody, a color change becomes evident over time after addition of the proper enzyme substrate, which can then be detected using specified light wavelength measurements. The light absorbance can be measured using a standard ELISA plate reader, which in turn produces a number. By comparing this number to a standard curve for CXCL10, a quantified amount of CXCL10 can be determined, or alternatively, the absorbance number itself may be used.

WBC [1] = test: ex vivo whole blood stimulation, CXCL10 release by WBC (ELISA); format: cell-based; settings: 3 hours post stimulation; subjects with Crohn's Disease or Ulcerative Colitis; FIG. 1
From the text: as §1
This response also occurs in normal individuals as well.

WBC [2] = test: ex vivo blood stimulation, CXCL9 levels; format: cell-based
From the text: as §1
The effects of different forms of activation and a combination of activating cytokines on CXCL9 levels in Crohn's Disease subjects was also studied.

## S=c1nc[nH]c2nc[nH]c12 [6 MP]
CXCL9
  effect of medication usage on activated CXCL9 levels: brought about a change

## azathioprine/6MP
CXCL10
  effect of medication on activated CXCL10 levels over time: significant changes

B1: interferon-gamma (protein, UniProt P01579 24-161, looked up)
Interferon gamma: QDPYVKEAENLKKYFNAGHSDVADNGTLFLGILKNWKEESDRKIMQSQIVSFYFKLFKNFKDDQSIQKSVETIKEDMNVKFFNSNKKKRDDFEKLTNYSVTDLNVQRKAIHELIQVMAELSPAAKTGKRKRSQMLFRG
notes: pro-inflammatory stimulant cytokine added to the blood sample
WBC [1]
  CXCL10 response following stimulation: a larger spread and an increase in the measurable values
WBC [2]; Crohn's Disease subjects, FIG. 6
  serum CXCL9 concentration levels after stimulation: increased
WBC [2]; Ulcerative Colitis subjects, active and inactive disease, FIG. 8
  serum CXCL9 concentration levels after stimulation: increased
